# Assay results published in patent US20230365705A1 (DYNAMICURE BIOTECHNOLOGY, published 2023).
# T1: Human CD93 on cells (human CD93 expressing CHO cells; HUVEC, U937 and KG1a cells) (human, UniProt Q9NPY3 22-652)
# T1 construct: whole, on cells; also called hCD93 expressing CHO cells; hCD93 CHO cells
# T1 sequence (looked up): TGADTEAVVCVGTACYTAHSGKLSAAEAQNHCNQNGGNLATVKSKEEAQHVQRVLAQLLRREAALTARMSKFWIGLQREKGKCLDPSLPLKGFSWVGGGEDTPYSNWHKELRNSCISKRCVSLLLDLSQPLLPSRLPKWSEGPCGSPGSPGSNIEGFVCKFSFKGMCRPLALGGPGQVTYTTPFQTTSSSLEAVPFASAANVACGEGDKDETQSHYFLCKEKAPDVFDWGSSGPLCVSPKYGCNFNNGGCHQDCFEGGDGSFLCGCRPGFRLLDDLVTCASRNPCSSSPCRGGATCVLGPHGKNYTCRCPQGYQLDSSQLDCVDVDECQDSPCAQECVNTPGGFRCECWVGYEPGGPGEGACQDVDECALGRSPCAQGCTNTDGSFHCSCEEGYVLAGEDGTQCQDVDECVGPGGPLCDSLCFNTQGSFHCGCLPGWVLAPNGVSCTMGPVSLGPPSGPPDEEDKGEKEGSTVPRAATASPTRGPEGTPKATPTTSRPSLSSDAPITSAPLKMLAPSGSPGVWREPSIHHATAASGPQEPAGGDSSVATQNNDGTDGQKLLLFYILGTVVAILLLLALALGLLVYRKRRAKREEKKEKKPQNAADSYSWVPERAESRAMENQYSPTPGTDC
# T2: Human CD93 recombinant protein (Sino Biological Inc, Catalog #12589-H08H) (human, UniProt Q9NPY3 22-580)
# T2 construct: Biotinylated (EZ-LINK NHS-PEG4 biotin) in the BLI assays; also called hCD93; His-tagged human CD93
# T2 sequence (looked up): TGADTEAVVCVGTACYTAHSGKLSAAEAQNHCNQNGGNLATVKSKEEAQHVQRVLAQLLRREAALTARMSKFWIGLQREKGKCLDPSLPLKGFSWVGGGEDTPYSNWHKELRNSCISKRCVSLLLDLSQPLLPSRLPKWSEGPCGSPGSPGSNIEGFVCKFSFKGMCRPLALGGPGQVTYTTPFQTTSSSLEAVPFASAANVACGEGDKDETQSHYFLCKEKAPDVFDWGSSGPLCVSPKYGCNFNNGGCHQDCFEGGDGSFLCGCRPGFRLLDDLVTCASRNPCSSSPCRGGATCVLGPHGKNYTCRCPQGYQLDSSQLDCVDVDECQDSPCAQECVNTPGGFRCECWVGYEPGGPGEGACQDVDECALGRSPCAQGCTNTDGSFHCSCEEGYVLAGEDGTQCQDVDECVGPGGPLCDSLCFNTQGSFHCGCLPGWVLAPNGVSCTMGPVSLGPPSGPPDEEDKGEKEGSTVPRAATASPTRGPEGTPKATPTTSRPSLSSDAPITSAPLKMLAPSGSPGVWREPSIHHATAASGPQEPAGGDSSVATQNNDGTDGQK
# Key:
# [1] = biological target: T1, Human CD93 on cells (human CD93 …); test: flow cytometry titration on HUVEC cells +human serum; column head printed kd, unit from the axis log (concentration (M))
# Description: (§1) Recombinant parental anti-CD93 antibodies were evaluated for their ability to bind to HUVEC cells in the presence or absence of human serum. […] Antibodies were purified using Protein G Sepharose. The resulting antibodies were tested for its binding capacity to a variety of cells that express CD93. […] Cells were quenched with media then counted. Cells were resuspended in FACS buffer (ice cold PBS with 0.5% BSA) and human serum was added to 20% (10% final volume) and put on ice for approximately 20 minutes. 5×10⁴ cells were seeded per well in 100 μL media and incubated with serial diluted anti-CD93 antibodies in 100 μL on ice for 2 hours. Cells were then washed by spinning cells at 1200 rpm for 5 min. Media was discarded and cells were resuspended in 200 μL ice cold FACS buffer. The wash step was repeated and cells were resuspended in 100 μL of secondary antibody, AlexaFluor647 conjugated anti-human IgG or anti-mouse IgG antibodies (Jackson ImmunoResearch), diluted 1:500 in FACS buffer. Plates were blocked from light and incubated 1 hour at 4° C. Cells were then washed again then were resuspended in 200 μL ice cold FACS buffer. Cells were washed again and resuspended in 200 μL fixing solution (PBS with 1% formaldehyde). Samples were stored at 4° C. covered in foil, then were acquired in NovoCyte Flow Cytometer and analyzed by NovoExpress software.
# [2] = biological target: T1, Human CD93 on cells (human CD93 …); test: flow cytometry titration on HUVEC cells -human serum; column head printed kd, unit from the axis log (concentration (M))
# Description: as §1
# [3] = biological target: T1, Human CD93 on cells (human CD93 …); test: flow cytometry titration on U937 cells -human serum; column head printed kd, unit from the axis log (concentration (M))
# Description: Cells were quenched with media then counted. Cells were resuspended in FACS buffer (ice cold PBS with 0.5% BSA) and put on ice ˜20 min. 5×10⁴ cells were seeded per well in 100 μL and incubated with serial diluted anti-CD93 antibodies in 100 μL on ice for 2 hours. Samples were then washed by spinning samples at 1200 rpm for 5 minutes. Media was discarded and cells were resuspended in 200 μL ice cold FACS buffer. Cells were washed again and resuspended in 100 μL of secondary Antibody, AlexaFluor647 conjugated anti-human IgG or anti-mouse IgG antibodies (Jackson ImmunoResearch), diluted 1:500 in FACS buffer. Plates were covered with foil to protect from light and were incubated for 1 hour on ice. Samples were then washed again and resuspended in 200 μL ice cold FACS buffer. Cells were washed again and resuspended in 200 μL fixing solution (PBS with 1% formaldehyde). Samples were stored at 4° C. covered in foil, ands were subsequently acquired in NovoCyte Flow Cytometer and analyzed by NovoExpress software.
# [4] = biological target: T1, Human CD93 on cells (human CD93 …); test: flow cytometry titration on human CD93 CHO cells; column head printed kd, unit from the axis log (concentration (M))
# Description: Cells were quenched with media then counted. Cells were resuspended in FACS buffer (ice cold PBS with 0.5% BSA) and human serum was added to 20% (10% final volume) and put on ice for approximately 20 minutes. 5×10⁴ cells were seeded per well in 100 μL and incubated with serial diluted anti-CD93 antibodies in 100 μL on ice for 2 hours. Samples were then washed by spinning samples at 1200 rpm for 5 minutes. Media was discarded and cells were resuspended in 200 μL ice cold FACS buffer. Cells were washed again and resuspended in 100 μL of secondary Antibody, AlexaFluor647 conjugated anti-human IgG or anti-mouse IgG antibodies (Jackson ImmunoResearch), diluted 1:500 in FACS buffer. Plates were covered with foil to protect from like and incubated for 1 hour on ice. Cells were washed again resuspended in 200 μL ice cold FACS buffer. Cells were washed again and were resuspended in 200 μL fixing solution (PBS with 1% formaldehyde). Samples were stored at 4° C. covered in foil, then were acquired in NovoCyte Flow Cytometer and analyzed by NovoExpress software.
# [5] = biological target: T1, Human CD93 on cells (human CD93 …); test: flow cytometry, CHO cells overexpressing human CD93, antibody 0.01ug, mIgG1 as control, APC-A
# [6] = biological target: T2, Human CD93 recombinant protein (Sino …); test: ELISA, His-tagged human CD93 coated, OD450
# Description: His-tagged human CD93 was coated onto a 96 well plate at 1 μg/mL in 1×PBS overnight at 4° C. The plate was washed with ELISA wash buffer (Boston BioProduct, Inc.) and the wells were blocked with ELISA blocking buffer for 1 hour at 37° C. […] The plate was washed with ELISA wash Buffer. […] The plate was washed with ELISA wash Buffer. HRP substrate was added for indirect detection of the antibodies binding to CD93.
# [7] = biological target: T1, Human CD93 on cells (human CD93 …); test: flow cytometry blocking assay, CHO-hCD93 cells, antibody 50 ug/ml then MMRN2 0.5 ug/ml, APC-A
# Description: (§2) After incubation, the cells were washed with FACS buffer and incubated with anti-His conjugated APC or streptavidin conjugated APC at a ratio of 1:500 for 30 minutes at 4° C. After washing with FACS buffer twice, the samples were analyzed and data acquired in NovoCyte Flow.
# [8] = biological target: T1, Human CD93 on cells (human CD93 …); test: flow cytometry, CHO-hCD93 cells, APC-A
# [9] = biological target: T1, Human CD93 on cells (human CD93 …); test: flow cytometry blocking assay, CHO-hCD93 cells, antibody 50 ug/ml then MMRN2 0.1 ug/ml, APC-A
# Description: as §2
# [10] = biological target: T2, Human CD93 recombinant protein (Sino …); test: BLI (Octet), human CD93; sheet prints Anti-Penta-HIS(HIS1K) biosensor
binder,measurement,setting,value
"Recombinant parental 7F3 with a human CH1 domain and mouse IgG1 CH2 and CH3 Fc domains (antibody, V domains shown) VH: QVQLQQSGADLVRPGASVKLSCKASGYTFTDYEMHWVKQTPVYGLEWIGGIDPETGDTAYNQNFKGKATLTADKSSSAAYMELRSLTSEDSAVYYCTNYGNLYYYAMDYWGQGTSVTVSS VL: ENVLTQSPAIMSASPGEKVTMTCRASSSVSSSYLHWYQQKSGASPKLWIYSTSNLAFGVPARFSGSGSGTSYSLTISSVEAEDAATYYCQQYSGYPLTFGSGTKLEIK",Kd,[1],3430 pM
same,Kd,[2],741 pM
same,Kd,[3],23.4 pM
same,Kd,[4],75.7 pM
"humanized 17B10 H1L3 (antibody, mouse IgG1, V domains shown, Chimeric Fc: human CH1, mouse IgG1 CH2 and CH3) VH: QVQLVQSGAEVKKPGSSVKVSCKASGYAFSSYWLNWVRQAPGQGLEWFGRIYPGDGDTDYNGKFKGRVTLTADKSTSTAYMELSSLRSEDTAVYFCVRGDGYWAMDYWGQGTTVTVSS VL: DIVMTQSPDSLAVSLGERATINCRFSKSLLHSNGITYLYWYQQKPGQPPKLLIYQMSNLASGVPDRFSGSGSGTDFTLTISSLQAEDVAVYYCAQNLELPWTFGGGTKLEIK","M2 gate, % of cells",[5],99.2%
"humanized 17B10 H3L2 (antibody, mouse IgG1, V domains shown, Chimeric Fc: human CH1, mouse IgG1 CH2 and CH3) VH: QVQLVQSGPEVKKPGESLKISCKASGYAFSSYWLNWVRQMPGKGLEWMGRIYPGDGDTDYNGKFKGQVTISADKSSGTAYLQLSSLKASDTAVYFCVRGDGYWAMDYWGQGTLVTVSS VL: DIVMTQTPLSLPVTPGEPASISCRFSQSLLHSNGITYLYWYLQKPGQSPQLLIYTMSNLASGVPDRFSGSGSGTDFTLKISRVEAEDVGVYYCAQNLELPWTFGGGTKLEIK","M2 gate, % of cells",[5],96.7%
"17B10 (hybridoma) (antibody, V domains shown, Mouse hybridoma monoclonal antibody) VH: QVQLQQSGPELVKPGASVKISCKASGYAFSSYWLNWVKQRPGKGLEWFGRIYPGDGDTDYNGKFKGKATLTADKSSSTAYMQLRSLTSEDSAVYFCVRGDGYWAMDYWGQGTSVTVSS VL: DIVMTQAAFSNPVTLGTSASISCRFSKSLLHSNGITYLYWYLQKPGQSPQLLIYQMSNLASGVPDRFSSSGSGTDFTLRISRVEAEDVGVYYCAQNLELPWTFGGGTKLEIK",EC50,[6],153 pM
"17B10-hIgG1 (recombinant parental 17B10-hFc) (antibody, V domains shown, also called recombinant parental 17B10 with the human Fc; 17B10 chimeric) VH: QVQLQQSGPELVKPGASVKISCKASGYAFSSYWLNWVKQRPGKGLEWFGRIYPGDGDTDYNGKFKGKATLTADKSSSTAYMQLRSLTSEDSAVYFCVRGDGYWAMDYWGQGTSVTVSS VL: DIVMTQAAFSNPVTLGTSASISCRFSKSLLHSNGITYLYWYLQKPGQSPQLLIYQMSNLASGVPDRFSSSGSGTDFTLRISRVEAEDVGVYYCAQNLELPWTFGGGTKLEIK",EC50,[6],16.7 pM
"10B1 (antibody, V domains shown, Mouse hybridoma monoclonal antibody) VH: QVQLKQSGPGLVQPSQSLSITCTVSDFSLSSFGVNWVRQPPGKGLEWLGVIWSGGSTDYNVAFISRLSISKDNSKSQVFFKMNNLQADDTAIYYCARNWRYDGYFYAMDYWGQGTSVTVSS VL: DIVMTQSQKFMSTSTGDRVSVTCKASQNVGTNVAWYQQKPGQSPKALIYSASYRFIGVPDRFTGSGSGTDFTLTITNVQSEDLAEYFCQQYNRNPITFGSGTKLEIK","M3 gate, % of cells positive for MMRN2 after the antibody",[7],47.2%
same,"M3 gate, % of cells",[8],97.3%
same,"M3 gate, % of cells positive for MMRN2 after the antibody",[9],29.4%
same,Kd,[10],904 pM
same,koff,[10],0.000116 s⁻¹
same,kon,[10],128000 M⁻¹ s⁻¹
"Recombinant parental 16E4 with a human CH1 domain and mouse IgG1 CH2 and CH3 Fc domains (antibody, V domains shown) VH: QVQLQQPGAELVKPGASVKLSCKASGYTFTSYWMHWVKQRPGQGLEWIGEIDPSASYTYYNQKFKGKATLTVDKSSSTAYMQLSSLTSEDSAVYYCARSVYYGNKYFDVWGAGTTVTVSS VL: not shown",Kd,[1],314 pM
same,Kd,[2],174 pM
same,Kd,[3],62.9 pM
same,Kd,[4],140 pM
